Legend:
[1] = Tolerability and body weight of tumor-bearing mice, Example 1; assay type: in vivo, BALB/cA nu/nu mice; conditions: 0.05-0.15 mg/mouse i.t. every other day, 21 days
From the text: The animals used were 4-6 weeks old male BALB/cA nu/nu mice, weighing about 23±2 g, obtained from the Shanghai Institute of Materia Medica (Shanghai, P.R. China). The study protocol was reviewed by the Committee on the Use and Care of Animals of Shanghai Institute of Materia Medica for compliance with regulations, and Committee approval was obtained prior to study initiation. Wherever possible, procedures used in this study were designed to avoid or minimize discomfort, distress, and pain to the animals. Animals that experience severe or chronic pain or distress that could not be relieved were painlessly euthanized, in accordance to regulations. Animals were housed 6 to a cage. They were ear-marked with ear hole punch identification. The room temperature was maintained at 25° C.±1° C. Lighting was set at 12 hr on and 12 hr off. Food was provided ad libitum. City tap water, filtered with a 5 micrometer (μm) filter, was provided to the animals ad libitum via water bottles.
Animals were assigned to treatment groups randomly. Initially, all animals were placed in one large animal cage. For assignment to the study, they were later separately housed, with 6 animals per cage per treatment group. […] Tumor growth was monitored by measuring the length and width of each tumor twice a week during the course of the study. […]

[2] = tested on: procaspase-3, cleaved caspase-3, procaspase-8, cleaved caspase-8, PARP in A549 cells; experiment: Apoptosis-related molecular markers by Western Blot; assay type: cell-based, human; conditions: 24 hr or 48 hr; interferons at 10 mcg/ml
From the text: (§1) Thereafter, apoptosis-related molecular markers were monitored by Western Blot. The primary antibodies used were mouse monoclonal anti-beta-tubulin (1:2000, Cat #: CW0098A) and mouse monoclonal anti-GAPDH (1:2000, Cat #: CW0100A) (Kangwei Biotechnology, China); mouse monoclonal anti-PARP (1:1000, Cat #: se-2007, Santa Cruz Biotechnology, Inc.); rabbit monoclonal anti-procaspase 3 (1:1000, Cat #: 9665), and rabbit polyclonal anti-cleaved caspase 3 (1:1000, Cat #: 9661) (Cell Signaling Technology, USA); goat polyclonal anti-procaspase 8 (1:1000, Cat #: sc-6136, Santa Cruz Biotechnology, Inc); rabbit monoclonal anti-cleaved caspase 8 (1:1000, Cat #: 9496) (Cell Signaling Technology, USA).

[3] = tested on: procaspase-3, cleaved caspase-3, procaspase-8, cleaved caspase-8, PARP in SW620 cells; experiment: as above; assay type: cell-based, human; conditions: 24 hr or 48 hr; interferons at 10 mcg/ml
From the text: as §1

[4] = tested on: beta-catenin protein level in A549 cells; experiment: Beta-catenin protein level by Western Blot; assay type: cell-based, human; conditions: 10 mcg/ml
Description: (§2) Cancer cells, A549 and Sw480, were cultured to about 85% confluency and put into 6 well plates. The cells were treated with either 10 mcg/ml IFNα-2b or rSIFN-co or left untreated as control (Mock) for 24 hr, 48 hr, or 72 hr, respectively. After treatment, the cells were harvested for Western Blot to detect the beta-catenin protein level, using its specific antibody, with GAPDH as endogenous loading control. The experiment was conducted in triplicate.
(§3) To determine the expression of various proteins, cells were harvested from the plates and total cellular protein were extracted using extraction reagents (Cat #: P0013) according to the manufacturer's protocol (Beyotime, China). The total protein concentration was determined by the Lowry Protein Assay kit (Bio-Rad, USA). […] The membranes were blocked with 5% skimmed milk, bovine serum albumin, 10 mmol/L Tris-HCl at pH 8.0, 150 mmol/L NaCl, and 0.05% Tween 20 overnight at 4° C. The blocked membranes were then incubated with primary antibodies (1:1000 dilutions), followed by secondary HRP-conjugated antibodies. Blots were visualized using Luminescence/Fluorescence Imaging LAS4000 System (GE Healthcare Life Sciences, USA) with super signal west pico chemiluminescent substrate kit (Thermo scientific, USA).
(§4) For this determination, the primary antibodies used were mouse monoclonal anti-beta-catenin antibodies (1:1000; Santa Cruz Technology, Santa Cruz, Calif.) and mouse monoclonal anti-GAPDH antibodies (1:2000) (Kangwei Biotechnology, China). Anti-mouse HRP-conjugated secondary antibodies (Santa Cruz Technology, Santa Cruz, Calif.) were used at concentrations of 1:2000.

[5] = tested on: beta-catenin protein level in SW480 cells; experiment: Beta-catenin protein level by Western Blot; assay type: cell-based, human; conditions: 10 mcg/ml, 72 hours
Description: as §2, §3, §4

[6] = tested on: human lung cancer SPC-A4 xenografts; experiment: Human lung cancer SPC-A4 xenografts in nude mice (Example 4); assay type: in vivo; conditions: for TV (mm^3, mean ± SD) (D0): day 0, start of treatment; for TV (mm^3, mean ± SD) (D21): day 21
Description: Before commencement of this study, the xenografts were passaged twice in nude mice. Under sterile conditions, well-grown tumors were cut into 1.5 mm^3 fragments and one such fragment was injected by trocar needle into the right flank of each study animal. […] Individual tumor size (length and width) was measured twice per week with microcalipers. Tumor volume (V) was calculated using the formula: V=(length×width^2)/2. Individual relative tumor volume (RTV) was calculated using the formula: RTV=Vt/V0, where Vt is the tumor volume on the day of measurement and V0 is the tumor volume on the day of first treatment. Therapeutic effect of the test article or control article was expressed in terms of TIC (%), using the formula: TIC (%) (mean RTV of the treated group/mean RTV of the control group)×100%; and in terms of % Inhibition, using the formula: % Inhibition=100%−T/C %.
The 1.5 mm^3 fragments were then used for s.c. implantation into the test animals.

[7] = tested on: phosphorylation of STAT1 (Tyr701), STAT2 (Tyr690), STAT3 (Tyr705) in A549 cells; experiment: STAT phosphorylation by Western Blot; assay type: cell-based, human; conditions: 10 μg/ml; 0, 5, 15, 30, 60, 120 and 240 minutes
From the text: (§5) After treatment, the cells were collected, cellular proteins were extracted and loaded onto SDS-PAGE […] for Western Blot analysis to observe the phosphorylation of STAT1 (Tyr701), STAT2 (Tyr690), and STAT3(Tyr705). GAPDH was used as a loading control.
(§6) The primary antibodies used were: STAT1 (1:1000, Cat #: 9175S), Tyr701 phosphorylated-STAT1 (1:1000, Cat #: 9167S), STAT2 (1:500, Cat #4594), Tyr690 phosphorylated-STAT2 (1:1000, Cat #: 441S), STAT3 (1:1000, Cat #: 9132), Tyr705 phosphorylated-STAT3 (1:1000, Cat #: 9145S). Anti-mouse (Cat #: sc-2005) or rabbit (Cat #: sc-2004) or goat (Cat #: sc-2020) HRP-conjugated secondary antibodies (Santa Cruz Technology, Santa Cruz, Calif.) were used at concentrations of 1:2000. Blots were visualized by use of Luminescence/Fluorescence Imaging LAS4000 System (GE Healthcare Life Sciences, USA) with super signal west pico chemiluminescnet substrate kit (Thermo Scientific, USA).

[8] = tested on: phosphorylation of STAT1 (Tyr701), STAT2 (Tyr690), STAT3 (Tyr705) in Hela cells; experiment: STAT phosphorylation by Western Blot; assay type: cell-based, human; conditions: 10 μg/ml; 0, 5, 15, 30, 60, 120 and 240 minutes
From the text: as §5, §6

[9] = 0.05 mg/mouse i.t. every other day
[10] = 0.10 mg/mouse i.t. every other day
[11] = 0.15 mg/mouse i.t. every other day

B1: rSIFN-co: Recombinant super-compound interferon; amino acid sequence SEQ ID NO: 1 (same as interferon alfacon-1), encoded by SEQ ID NO: 2, novel tertiary structure (protein)
chain: MCDLPQTHSLGNRRALILLAQMRRISPFSCLKDRHDFGFPQEEFDGNQFQKAQAISVLHEMIQQTFNLFSTKDSSAAWDESLLEKFYTELYQQLNDLEACVIQEVGVEETPLMNVDSILAVKKYFQRITLYLTEKKYSPCAWEVVRAEIMRSFSLSTNLQERLRRKE
modifications: Amino acid sequence of recombinant interferon
- tolerability: signs of toxicity or weight loss [1]: no signs of toxicity or weight loss
- level of apoptosis-related molecular markers (procaspase-3, procaspase-8, PARP, cleaved caspase-3, cleaved caspase-8) [2]: neither of the interferons, IFN alpha-2b nor rSIFN-co, caused any reduction in the level of procaspase-3 or procaspase-8 or PARP, or induced any enhancement in the level of cleaved caspase-3 or cleaved caspase-8
- level of apoptosis-related molecular markers (procaspase-3, procaspase-8, PARP, cleaved caspase-3, cleaved caspase-8) [3]: neither of the interferons, IFN alpha-2b nor rSIFN-co, caused any reduction in the level of procaspase-3 or procaspase-8 or PARP, or induced any enhancement in the level of cleaved caspase-3 or cleaved caspase-8
- beta-catenin protein level ([4]; 48 hr): dramatically decreased
- beta-catenin protein level ([4]; 72 hr): Further decrease
- beta-catenin protein level [5]: Decrease in beta-catenin protein level in the SW480 cells was obvious
- TV (mm^3, mean ± SD) (D0) [6, 9]: 170 ± 41 mm^3
- TV (mm^3, mean ± SD) (D21) [6, 9]: 2244 ± 1043 mm^3
- TV (mm^3, mean ± SD) (D0) [6, 10]: 168 ± 49 mm^3
- TV (mm^3, mean ± SD) (D21) [6, 10]: 2388 ± 1544 mm^3
- TV (mm^3, mean ± SD) (D0) [6, 11]: 169 ± 40 mm^3
- TV (mm^3, mean ± SD) (D21) [6, 11]: 2284 ± 653 mm^3
- phosphorylation patterns for STAT1, STAT2 and STAT3 [7]: behaved similarly in their phosphorylation patterns for STAT1, STAT2 and STAT3
- phosphorylation patterns for STAT1, STAT2 and STAT3 [8]: behaved similarly in their phosphorylation patterns for STAT1, STAT2 and STAT3

— patent publication US10677782B2, “Methods of determining interferon having direct inhibitory effects on tumors and uses thereof” (SUPERLAB FAR EAST LIMITED, priority 2013, dated 2020)
